Assay [1] relates to CCR5 sulfated by TPST2 in cell lysates. Put plainly: Western blotting of transfected HEK293 cell lysates with BA8 as detection antibody. Format: binding. As to conditions: 100 nM BA8 (full-length IgG) as detection antibody; lysates of NC, C, C1, C2, C12 cells. The source says:
(§1) We prepared model cells with transient overexpression to examine whether BA8 can recognize sulfated full-length CCR5. As referred in the Introduction section, previous research has shown that protein tyrosine sulfotransferases (TPSTs) are responsible for tyrosine sulfation ([10], [11], [12]). Those two isoforms of TPST (TPST1 and TPST2) and CCR5 genes were transiently transfected in the following five combinations to HEK293 cells: Negative Control (NC); CCR5 (C); CCR5 + TPST1 (C1); CCR5 + TPST2 (C2); and CCR5 + TPST1 + TPST2 (C12). Each protein contained the following tag sequences at the C-terminus: CCR5 – FLAG, TPST1 – HA, and TPST2 – Myc. The overexpression of each protein was confirmed by western blotting using tag antibodies (Fig. 5, A and B).
We prepared recombinant BA8 as a full-length IgG form for subsequent cell-based assays (Fig. S2, C and D).
The cell lysate suspended in RIPA Buffer was placed on ice for 30 min, followed by centrifugation at 20,000 × g for 20 min. […] Protein bands were detected by incubating the membranes with anti-DDDDK-tag mAb-HRP-DirecT, anti-HA tag mAb-HRP-DirecT, anti-Myc tag mAb-HRP-DirecT (all from MBL Lifescience), or each IgG followed by incubation with horseradish peroxidase (HRP)-conjugated anti-rabbit IgG, HRP-linked antibody (Cell Signaling Technology) at room temperature for 30 min. […]
In general terms: Immunoblotting shows a protein as a band on a membrane.

Assay [2] has as its system CCR5 on HEK293 cells transfected with CCR5 (C) or CCR5 + TPST1 (C1). As to the kind of experiment: Flow cytometry binding to C and C1 cells. The class given is cell-based. To be noted: cells overexpressing only CCR5 or CCR5 and TPST1.
From the text: as §1
We conducted flow cytometry using these cells to confirm that BA8 can recognize sulfated CCR5 expressed on the cell surface (Fig. 5D).
HEK293 cells stored in liquid nitrogen were initiated into the culture by thawing. After the third passage, at 70% confluency, they were transfected with pCAGGS expression vectors containing CCR5, TPST1, or TPST2 using Lipofectamine 3000 Transfection Reagent (ThermoFisher Scientific). To exclude artifacts caused by the transfection operation itself, empty vectors without the objective protein were transfected if the protein was not to be expressed. […]
In general terms: In flow cytometry, cells or beads pass a laser one at a time.

Assay [3] relates to sulfated N-terminal peptide of CCR5. Put plainly: ITC analysis of BA8 Fab (wild type and mutants) with the sulfated peptide. Format: binding. To be noted: 10 μM Fab in cell, 100 μM sulfated peptide in syringe, PBS, 25 °C. The text has this: To determine the thermodynamic parameters accompanying the interaction, we performed an ITC analysis (Fig. 2B, Table 2).
To further dissect how molecular recognition occurs, we evaluated the contribution of individual residues of BA8 to the recognition of the sulfated peptide. We analyzed the crystal structure using the PDB PISA server, and we conducted mutation analyses in which the residues predicted to form hydrogen bonds or located at the interface were mutated to alanine (Fig. 3B).
The ITC experiments were performed using a MicroCal PEAQ-ITC (Malvern Panalytical, Malvern, UK). The BA8 Fab fragment antibody, sufficiently dialyzed in PBS, was adjusted to 10 μM for the cells, and the CCR5 N-terminal peptide, dissolved in the dialysate, was adjusted to 100 μM for the syringe. The first injection of 0.5 μl (omitted from the analysis) was followed by 19 injections of 2 μl with 120 s intervals at a constant temperature of 25 °C. The titration syringe was continuously stirred at 750 rpm.
The baselines were smoothly adjusted for the step after each titration saturated and fitted as one set of sites binding in MicroCal PEAQ-ITC Analysis Software (Malvern Panalytical, Malvern, UK).
In general terms: ITC needs no label: the signal is the heat of the interaction.

B1: BA8: rabbit antibody clone from phage display that specifically recognizes the sulfated N-terminal peptide of CCR5 (antibody, V domains shown)
VH: QSLEESGGGLFKPTDTLTLTCTVSGFSLSSYSIRWVRQAPGNGLEWIGAIGSGGNAYYTSWAKSRSTITRNTNENTVTLKMTSLTVADTATYFCARGGINFGIWGPGTLVTVSS
VL: AAVLTQTPSPVSAAVGSTVTINCQSSQSVYSKNWLSWFQQKPGQPPKQLIYSASTLDSGVPSRFSGSGSGTQFTLTISGVQCDDAATYYCQGTYGDASAFGGGTEVVVK
In the case of B1, the “recognition of CCR5 in cell lysates by western blotting, in words” value in assay [1] is “specifically recognized CCR5 in the lysates of cells C2 and C12”. Besides, in assay [2], the “binding to C and C1 cells in flow cytometry, in words” value is listed as “slight binding”. In assay [3], this molecule gave a ΔH of -28.7 kcal/mol.
